Results as given in US20080161234A1, “Composition Comprising Lactic Acid and Lactoferrin” (priority 2004, published 2008).
“Also recorded” adds a separate entry of the source.

How the values were obtained:
Assay type in all cases: cell-based
[1] = test system: L. jensenii; experiment: Survival of L. jensenii in lactate with LF; details: 2 mg/ml, lactate 0.2%, 2 h
Method: (§1) L. gasseri and L. jensenii were cultured on chocolate-agar plates for 24 h in 5% CO2/95% air. They were thereafter harvested and added to BHI (0.34%). After washing the bacterial solutions were adjusted spectrophotometrically and diluted to 8×10^6 bacteria/ml.
(§2) Washed cells were suspended in 0.2% BP (pH 7.0) or BHI medium diluted 1/10 (0.34%, pH 6.7-6.9) (Difco, USA). The concentration of bacterial or fungal cells was spectrophotometrically adjusted. LF or peptide, serially diluted in BHIdil or BP by twofold steps (unless otherwise stated), were added in triplicate to the wells of a microtiterplate (200 ul per well). The bacterial or yeast cell solutions were added in 10 ul volumes to give a final concentration of approximately 2×10^5 cells per ml. The concentration of the stock solution was always checked by viable counts. The microplate was incubated at 37° C. in a humid chamber for 2 h unless otherwise stated. Five ul were taken from each well and added as a drop onto a blood agar plate and incubated over night at 37° C. In some experiments more thorough viable counts were performed and the killing was expressed as remaining colony forming units in relation to the inoculum. The lower limit for detection of microorganisms was 200 CFU/ml.
(§3) L. gasseri survived better in the assay system than did L. jensenii. Undiluted lactate (5%) affected the survival of Lactobacillus.

[2] = test system: C. albicans (ATCC 64549); experiment: Microbicidal microplate assay (viable counts), C. albicans
Method: The bacterial strains S. aureus 1800 (CCUG 1800), E. coli 06, and the yeast C. albicans (ATCC 64549) have been used in the microplate assay. All microorganisms were cultured in brain heart infusion medium (BHI) on a shaker over night at 37° C. A volume of the culture was transferred to a new tube with BHI and incubated for two more h on the shaker. The bacteria were harvested in the log phase, washed once and thereafter suspended in the broth used for the microplate assay. The suspension was adjusted spectrophotometrically and diluted to a concentration of approximately 4×10^6 cells per ml at 650 nm. Washed cells were suspended in 0.2% BP (pH 7.0) or BHI medium diluted 1/10 (0.34%, pH 6.7-6.9) (Difco, USA). The concentration of bacterial or fungal cells was spectrophotometrically adjusted. LF or peptide, serially diluted in BHIdil or BP by twofold steps (unless otherwise stated), were added in triplicate to the wells of a microtiterplate (200 ul per well). The bacterial or yeast cell solutions were added in 10 ul volumes to give a final concentration of approximately 2×10^5 cells per ml. The concentration of the stock solution was always checked by viable counts. The microplate was incubated at 37° C. in a humid chamber for 2 h unless otherwise stated. Five ul were taken from each well and added as a drop onto a blood agar plate and incubated over night at 37° C. In some experiments more thorough viable counts were performed and the killing was expressed as remaining colony forming units in relation to the inoculum. The lower limit for detection of microorganisms was 200 CFU/ml. The antimicrobial activity of human LF was analysed by the microbicidal assay described above. Different microbes such as C. albicans, E. coli and S. aureus were analysed with respect to their survival in lactate (not containing the inert gel base, which makes the gel unsuitable for the microbicidal assay) containing LF. […] LF was incubated together with various concentrations of lactate diluted in 0.2% bactopeptone and C. albicans for 2 h. Thereafter each solution was analysed for viable counts.

[3] = test system: L. gasseri; experiment: Survival of L. gasseri in lactate with LF; details: rHLF 2 mg/ml in lactate, 2 h of incubation
Method: as §1, §2, §3

[4] = test system: E. coli 06; experiment: Microbicidal microplate-droplet assay, E. coli; details: 1 mg/ml, lactate 0.2% and lactate free solution, 2 h
Method: The bacterial strains S. aureus 1800 (CCUG 1800), E. coli 06, and the yeast C. albicans (ATCC 64549) have been used in the microplate assay. All microorganisms were cultured in brain heart infusion medium (BHI) on a shaker over night at 37° C. A volume of the culture was transferred to a new tube with BHI and incubated for two more h on the shaker. The bacteria were harvested in the log phase, washed once and thereafter suspended in the broth used for the microplate assay. The suspension was adjusted spectrophotometrically and diluted to a concentration of approximately 4×10^6 cells per ml at 650 nm. Washed cells were suspended in 0.2% BP (pH 7.0) or BHI medium diluted 1/10 (0.34%, pH 6.7-6.9) (Difco, USA). The concentration of bacterial or fungal cells was spectrophotometrically adjusted. LF or peptide, serially diluted in BHIdil or BP by twofold steps (unless otherwise stated), were added in triplicate to the wells of a microtiterplate (200 ul per well). The bacterial or yeast cell solutions were added in 10 ul volumes to give a final concentration of approximately 2×10^5 cells per ml. The concentration of the stock solution was always checked by viable counts. The microplate was incubated at 37° C. in a humid chamber for 2 h unless otherwise stated. Five ul were taken from each well and added as a drop onto a blood agar plate and incubated over night at 37° C. In some experiments more thorough viable counts were performed and the killing was expressed as remaining colony forming units in relation to the inoculum. The lower limit for detection of microorganisms was 200 CFU/ml. The antimicrobial activity of human LF was analysed by the microbicidal assay described above. Different microbes such as C. albicans, E. coli and S. aureus were analysed with respect to their survival in lactate (not containing the inert gel base, which makes the gel unsuitable for the microbicidal assay) containing LF.

B1: rHLF: Recombinant human LF obtained from Agennix (protein, UniProt P02788 20-710, looked up)
Lactotransferrin: GRRRSVQWCAVSQPEATKCFQWQRNMRKVRGPPVSCIKRDSPIQCIQAIAENRADAVTLDGGFIYEAGLAPYKLRPVAAEVYGTERQPRTHYYAVAVVKKGGSFQLNELQGLKSCHTGLRRTAGWNVPIGTLRPFLNWTGPPEPIEAAVARFFSASCVPGADKGQFPNLCRLCAGTGENKCAFSSQEPYFSYSGAFKCLRDGAGDVAFIRESTVFEDLSDEAERDEYELLCPDNTRKPVDKFKDCHLARVPSHAVVARSVNGKEDAIWNLLRQAQEKFGKDKSPKFQLFGSPSGQKDLLFKDSAIGFSRVPPRIDSGLYLGSGYFTAIQNLRKSEEEVAARRARVVWCAVGEQELRKCNQWSGLSEGSVTCSSASTTEDCIALVLKGEADAMSLDGGYVYTAGKCGLVPVLAENYKSQQSSDPDPNCVDRPVEGYLAVAVVRRSDTSLTWNSVKGKKSCHTAVDRTAGWNIPMGLLFNQTGSCKFDEYFSQSCAPGSDPRSNLCALCIGDEQGENKCVPNSNERYYGYTGAFRCLAENAGDVAFVKDVTVLQNTDGNNNEAWAKDLKLADFALLCLDGKRKPVTEARSCHLAMAPNHAVVSRMDKVERLKQVLLHQQAKFGRNGSDCPDKFCLFQSETKNLLFNDNTECLARLHGKTTYEKYLGPQYVAGITNLKKCSTSPLLEACEFLRK
[1]
  resistance of L. jensenii to the antibacterial effect: more resistant
[2]; lactate 0.2%, 2 and 20 h
  fungicidal effect on C. albicans, rHLF in comparison to LF: the stronger effect of rHLF was observed only after a longer incubation time
[2]; lactate 1%, higher LF concentrations
  fungicidal effect on C. albicans, rHLF in comparison to LF: stronger effect
[2]; rHLF 0.5-1.0 mg/ml, lactate 1%, 2 h
  killing of the inoculate: ~99%
[3]
  effect on L. gasseri survival beyond that of lactate: no additional effects; also recorded: survived equally well
[4]
  killing of E. coli, rHLF compared with LF: the most effective of the two LFs
